Data on three molecules can be found in patent US20240003871A1, “IPSC-DERIVED ASTROCYTES AND METHODS OF USE THEREOF” (FUJIFILM Cellular Dynamics, Inc., priority 2022, published 2024).

In this experiment the test system is Astrocytes. Description: Luminex assay of proteins secreted by astrocytes after cytokine stimulation. The experiment is classed as cell-based, human. As to conditions: stimulation in basal medium for 24 hours; average of four lots. As to the method: FIGS. 8A-8J: Astrocytes from four lots were thawed and cultured for 7 days in Astro 3 media, before stimulation in basal medium for 24 hours. Supernatant was collected and assayed using a custom Luminex assay from R&D on the FLEXMAP 3D instrument, according to manufacturer's instructions. Each condition was run in duplicate, with the average of all four lots compared to the control (unstimulated) condition to calculate fold change. Error bars are +/−1 SEM. […] The combination of IFN-gamma with TNF-alpha produced the highest fold-change over control, with over 84-fold secretion of IL-1ra compared to control. IL-1ra binds to cell surface IL-1 receptors, blocking binding of pro-inflammatory IL-1alpha and IL-1beta. […] TNF-alpha combined with either IL-1alpha or IL-1beta increased IL-6 secretion by over 3300-fold compared to control. IL-6 attracts pro-inflammatory T cells and promotes demyelination. […] TNF-alpha combined with either IL-1alpha or IL-1beta increased IL-8 secretion by over 12,000-fold compared to control. IL-8/CXCL8 is secreted by astrocytes to attract pro-inflammatory immune cells after insults. This analyte also plays a role in recruitment and differentiation of oligodendrocyte precursor cells (OPCs) to promote remyelination. […] TNF-alpha alone, or combined with IL-1alpha, IL-1beta or IFN-gamma increased IL-10 secretion by over 1000-fold compared to control. IL-10 is secreted by astrocytes to reduce iNos activity and reduce astrogliosis. […] TNF-alpha alone, or combined with IL-1alpha, IL-1beta or IFN-gamma increased CCL5/RANTES secretion by over 2500-fold compared to control. CCL5/RANTES controls the movements of peripheral immune cells. […] TNF-alpha combined with IL-1alpha or IL-1beta increased CCL7 secretion by over 15,000-fold compared to control. CCL7 is important for astrocyte-microglia interactions and induces microglia activation. […] Stimulation with IL-1alpha or TNF-alpha alone increased CCL20 secretion by over 18-fold over unstimulated control. TNF-alpha combined with IL-1alpha, IL-1beta or IFN-gamma increased CCL20 secretion by over 100-fold compared to control. CCL20 is secreted by astrocytes in response to pro-inflammatory stimuli and attracts T-cells, B-cells and DCs. […] Stimulation with IL-1alpha increased CXCL1 secretion by 84-fold over unstimulated control. TNF-alpha combined with IL-1alpha or IL-1beta increased CXCL1 secretion by over 450-fold compared to control. CXCL1 is secreted by astrocytes to recruit neutrophils to the site of infection, and increases BBB permeability. […] CXCL2 activates CXCR2, found on oligodendrocytes and OPCs, which increases OPC proliferation and differentiation. […] CXCL5 is secreted by astrocytes in response to injury and activates microglia, resulting in decreased microglia phagocytosis and inhibition.
Astrocytes from four lots were thawed and cultured for 7 days in Astro 3 media, before stimulation in basal medium for 24 hours. Supernatant was collected and assayed using a custom Luminex assay from R&D on the FLEXMAP 3D instrument, according to manufacturer's instructions. […] The combination of IFN-gamma with TNF-alpha produced the highest fold-change over control, with over 84-fold secretion of IL-1ra compared to control. IL-1ra binds to cell surface IL-1 receptors, blocking binding of pro-inflammatory IL-1alpha and IL-1beta.

As to TNF-alpha, the “CCL7 secretion, fold change over unstimulated control” value was determined as 1184 fold; the “IL-1ra secretion, fold change over unstimulated control” value (“IL-1ra secretion, fold change” for short) is given as “three”; the “IL-8/CXCL8 secretion, fold change over unstimulated control” value is 898 fold.

B1: IFN-gamma: cytokine used to stimulate astrocytes (protein, UniProt P01579 24-161, looked up)
Interferon gamma: QDPYVKEAENLKKYFNAGHSDVADNGTLFLGILKNWKEESDRKIMQSQIVSFYFKLFKNFKDDQSIQKSVETIKEDMNVKFFNSNKKKRDDFEKLTNYSVTDLNVQRKAIHELIQVMAELSPAAKTGKRKRSQMLFRG
Consider B1, for which the “IL-1ra secretion, fold change” value is listed as “robust secretion”; the “IL-6 secretion, fold change over unstimulated control” value stood at 32 fold; the “IL-10 secretion, fold change over unstimulated control” value came out at 161 fold.

B2: IL-1alpha: pro-inflammatory cytokine used to stimulate astrocytes (protein, UniProt P01583 113-271, looked up)
Interleukin-1 alpha: SAPFSFLSNVKYNFMRIIKYEFILNDALNQSIIRANDQYLTAAALHNLDEAVKFDMGAYKSSKDDAKITVILRISKTQLYVTAQDEDQPVLLKEMPEIPKTITGSETNLLFFWETHGTKNYFTSVAHPNLFIATKQDYWVCLAGGPPSITDFQILENQA
For the molecule B2, the “CCL5/RANTES secretion, fold change over unstimulated control” value amounted to 156 fold; the “CCL7 secretion, fold change over unstimulated control” value was 2177 fold; the “CXCL1 secretion, fold change over unstimulated control” value is reported as 84 fold; the “CXCL2 secretion, fold change over unstimulated control” value came to 379 fold. Also, the “CXCL5 secretion, fold change over unstimulated control” value amounted to 161 fold; the “IL-1ra secretion, fold change” value is recorded as “three”; the “IL-6 secretion, fold change over unstimulated control” value is on record as “over 400 fold”; the “IL-8/CXCL8 secretion, fold change over unstimulated control” value was “over 3300 fold”. Besides, the “IL-10 secretion, fold change over unstimulated control” value was “over 415 fold”.
